Measurements taken from US20250206821A1 (Hoffmann-La Roche, published 2025).

Legend:
VEGF [1] = molecular target: T1, VEGF (UniProt P15692-9 27-147); assay: bridging ELISA on exchange reaction mix; VEGF capture, biocytinamid-Cy5 detection; input 1.3 µM; highest value of the assay = 100%
T1 construct: also called VEGF121
T1 sequence (looked up): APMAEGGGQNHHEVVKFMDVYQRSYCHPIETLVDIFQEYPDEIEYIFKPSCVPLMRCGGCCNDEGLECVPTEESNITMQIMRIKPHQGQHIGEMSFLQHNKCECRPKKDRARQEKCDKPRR

VEGF [2] = molecular target: T1, VEGF; assay: bridging ELISA, VEGF capture, biocytinamid-Cy5 detection; background signal
VEGF [3] = molecular target: T1, VEGF; assay: bridging ELISA on exchange reaction mix; VEGF capture, digoxygenin-Cy5 detection; input 1.3 µM; highest value of the assay = 100%
VEGF [4] = molecular target: T1, VEGF; assay: bridging ELISA, VEGF capture, biocytinamid-Cy5 or digoxygenin-Cy5 detection; background signal
VEGF [5] = molecular target: T1, VEGF; assay: bridging ELISA, VEGF capture, digoxygenin-Cy5 detection; background signal

B1: anti-bio/anti-fluos bsAb (bio 2/3-IgG with E357K MHCFcRP x fluos 2/3-IgG with K370E MHCFcRP) (bispecific antibody)
heavy 1: not shown
light 1: DIQMTQSPSSLSASVGDRVTITCRASGNIHNYLSWYQQKPGKVPKLLIYSAKTLADGVPSRFSGSGSGTDFTLTISSLQPEDVATYYCQHFWSSIYTFGQGTKLEIKRTVAAPSVFIFPPSDEQLKSGTASVVCLLNNFYPREAKVQWKVDNALQSGNSQESVTEQDSKDSTYSLSSTLTLSKADYEKHKVYACEVTHQGLSSPVTKSFNRGEC
heavy 2: not shown
light 2: DIVMTQTPLSLSVTPGQPASISCKSSQSLVHSNGNTYLRWYLQKPGQSPKVLIYKVSNRVSGVPDRFSGSGSGTDFTLKISRVEAEDVGVYYCSQSTHVPWTFGQGTKLEIKRTVAAPSVFIFPPSDEQLKSGTASVVCLLNNFYPREAKVQWKVDNALQSGNSQESVTEQDSKDSTYSLSSTLTLSKADYEKHKVYACEVTHQGLSSPVTKSFNRGEC
notes: Product of the 2/3-IgG exchange reaction, assayed as reaction mix; also called bio fluos
VEGF [1]
  relative signal intensity: 9%
VEGF [2]
  binding result: no binding (tested: input molecule concentration 1.3 µM)

B2: anti-bio/anti-dig bsAb (bio 2/3-IgG with E357K MHCFcRP x dig 2/3-IgG with K370E MHCFcRP) (bispecific antibody)
heavy 1: not shown
light 1: DIQMTQSPSSLSASVGDRVTITCRASGNIHNYLSWYQQKPGKVPKLLIYSAKTLADGVPSRFSGSGSGTDFTLTISSLQPEDVATYYCQHFWSSIYTFGQGTKLEIKRTVAAPSVFIFPPSDEQLKSGTASVVCLLNNFYPREAKVQWKVDNALQSGNSQESVTEQDSKDSTYSLSSTLTLSKADYEKHKVYACEVTHQGLSSPVTKSFNRGEC
heavy 2: QVQLVESGGGLVKPGGSLRLSCAASGFTFSDYAMSWIRQAPGKGLEWVSSINIGATYIYYADSVKGRFTISRDNAKNSLYLQMNSLRAEDTAVYYCARPGSPYEYDKAYYSMAYWGQGTTVTVSSASTKGPSVFPLAPSSKSTSGGTAALGCLVKDYFPEPVTVSWNSGALTSGVHTFPAVLQSSGLYSLSSVVTVPSSSLGTQTYICNVNHKPSNTKVDKKVEPKSC
light 2: not shown
notes: Product of the 2/3-IgG exchange reaction, assayed as reaction mix; also called bio dig; not shown: residue limits no
VEGF [3]
  relative signal intensity: 6.2%
VEGF [4]
  binding result: no binding (tested: input molecule concentration 1.3 µM)
VEGF [1]
  relative signal intensity: 9.3%

B3: anti-fluos/anti-dig bsAb (fluos 2/3-IgG with E357K MHCFcRP x dig 2/3-IgG with K370E MHCFcRP) (bispecific antibody)
heavy 1: not shown
light 1: DIVMTQTPLSLSVTPGQPASISCKSSQSLVHSNGNTYLRWYLQKPGQSPKVLIYKVSNRVSGVPDRFSGSGSGTDFTLKISRVEAEDVGVYYCSQSTHVPWTFGQGTKLEIKRTVAAPSVFIFPPSDEQLKSGTASVVCLLNNFYPREAKVQWKVDNALQSGNSQESVTEQDSKDSTYSLSSTLTLSKADYEKHKVYACEVTHQGLSSPVTKSFNRGEC
heavy 2: QVQLVESGGGLVKPGGSLRLSCAASGFTFSDYAMSWIRQAPGKGLEWVSSINIGATYIYYADSVKGRFTISRDNAKNSLYLQMNSLRAEDTAVYYCARPGSPYEYDKAYYSMAYWGQGTTVTVSSASTKGPSVFPLAPSSKSTSGGTAALGCLVKDYFPEPVTVSWNSGALTSGVHTFPAVLQSSGLYSLSSVVTVPSSSLGTQTYICNVNHKPSNTKVDKKVEPKSC
light 2: not shown
notes: Product of the 2/3-IgG exchange reaction, assayed as reaction mix; also called fluos dig; not shown: residue limits no
VEGF [3]
  relative signal intensity: 6.3%
VEGF [5]
  binding result: no binding (tested: input molecule concentration 1.3 µM)

B4: anti-dig/anti-bio bsAb (dig 2/3-IgG with E357K MHCFcRP x bio 2/3-IgG with K370E MHCFcRP) (bispecific antibody)
heavy 1: QVQLVESGGGLVKPGGSLRLSCAASGFTFSDYAMSWIRQAPGKGLEWVSSINIGATYIYYADSVKGRFTISRDNAKNSLYLQMNSLRAEDTAVYYCARPGSPYEYDKAYYSMAYWGQGTTVTVSSASTKGPSVFPLAPSSKSTSGGTAALGCLVKDYFPEPVTVSWNSGALTSGVHTFPAVLQSSGLYSLSSVVTVPSSSLGTQTYICNVNHKPSNTKVDKKVEPKSC
light 1: not shown
heavy 2: not shown
light 2: DIQMTQSPSSLSASVGDRVTITCRASGNIHNYLSWYQQKPGKVPKLLIYSAKTLADGVPSRFSGSGSGTDFTLTISSLQPEDVATYYCQHFWSSIYTFGQGTKLEIKRTVAAPSVFIFPPSDEQLKSGTASVVCLLNNFYPREAKVQWKVDNALQSGNSQESVTEQDSKDSTYSLSSTLTLSKADYEKHKVYACEVTHQGLSSPVTKSFNRGEC
notes: Product of the 2/3-IgG exchange reaction, assayed as reaction mix; also called dig bio; not shown: residue limits no
VEGF [3]
  relative signal intensity: 6.2%
VEGF [4]
  binding result: no binding (tested: input molecule concentration 1.3 µM)
VEGF [1]
  relative signal intensity: 9%

B5: anti-dig/anti-fluos bsAb (dig 2/3-IgG with E357K MHCFcRP x fluos 2/3-IgG with K370E MHCFcRP) (bispecific antibody)
heavy 1: QVQLVESGGGLVKPGGSLRLSCAASGFTFSDYAMSWIRQAPGKGLEWVSSINIGATYIYYADSVKGRFTISRDNAKNSLYLQMNSLRAEDTAVYYCARPGSPYEYDKAYYSMAYWGQGTTVTVSSASTKGPSVFPLAPSSKSTSGGTAALGCLVKDYFPEPVTVSWNSGALTSGVHTFPAVLQSSGLYSLSSVVTVPSSSLGTQTYICNVNHKPSNTKVDKKVEPKSC
light 1: not shown
heavy 2: not shown
light 2: DIVMTQTPLSLSVTPGQPASISCKSSQSLVHSNGNTYLRWYLQKPGQSPKVLIYKVSNRVSGVPDRFSGSGSGTDFTLKISRVEAEDVGVYYCSQSTHVPWTFGQGTKLEIKRTVAAPSVFIFPPSDEQLKSGTASVVCLLNNFYPREAKVQWKVDNALQSGNSQESVTEQDSKDSTYSLSSTLTLSKADYEKHKVYACEVTHQGLSSPVTKSFNRGEC
notes: Product of the 2/3-IgG exchange reaction, assayed as reaction mix; also called dig fluos; not shown: residue limits no
VEGF [3]
  relative signal intensity: 6.7%
VEGF [5]
  binding result: no binding (tested: input molecule concentration 1.3 µM)

B6: anti-bio/anti-PDGF bsAb (bio 2/3-IgG with E357K MHCFcRP x PDGF 2/3-IgG with K370E MHCFcRP) (bispecific antibody)
heavy 1: not shown
light 1: DIQMTQSPSSLSASVGDRVTITCRASGNIHNYLSWYQQKPGKVPKLLIYSAKTLADGVPSRFSGSGSGTDFTLTISSLQPEDVATYYCQHFWSSIYTFGQGTKLEIKRTVAAPSVFIFPPSDEQLKSGTASVVCLLNNFYPREAKVQWKVDNALQSGNSQESVTEQDSKDSTYSLSSTLTLSKADYEKHKVYACEVTHQGLSSPVTKSFNRGEC
heavy 2: EVQLVESGGGLVQPGGSLRLSCAASGFTFSSYWMSWVRQAPEKGLEWVSTISDGGGLTYYADSVKGRFTISRDNAKNSLYLQMNSLRAEDTAVYYCAESGGYTDWLFGYWGQGTLVTVSSASTKGPSVFPLAPSSKSTSGGTAALGCLVKDYFPEPVTVSWNSGALTSGVHTFPAVLQSSGLYSLSSVVTVPSSSLGTQTYICNVNHKPSNTKVDKKVEPKSC
light 2: not shown
notes: Product of the 2/3-IgG exchange reaction, assayed as reaction mix; also called bio PDGF; not shown: residue limits no
VEGF [1]
  relative signal intensity: 10.1%
VEGF [2]
  binding result: no binding (tested: input molecule concentration 1.3 µM)

B7: anti-fluos/anti-bio bsAb (fluos 2/3-IgG with E357K MHCFcRP x bio 2/3-IgG with K370E MHCFcRP) (bispecific antibody)
heavy 1: not shown
light 1: DIVMTQTPLSLSVTPGQPASISCKSSQSLVHSNGNTYLRWYLQKPGQSPKVLIYKVSNRVSGVPDRFSGSGSGTDFTLKISRVEAEDVGVYYCSQSTHVPWTFGQGTKLEIKRTVAAPSVFIFPPSDEQLKSGTASVVCLLNNFYPREAKVQWKVDNALQSGNSQESVTEQDSKDSTYSLSSTLTLSKADYEKHKVYACEVTHQGLSSPVTKSFNRGEC
heavy 2: not shown
light 2: DIQMTQSPSSLSASVGDRVTITCRASGNIHNYLSWYQQKPGKVPKLLIYSAKTLADGVPSRFSGSGSGTDFTLTISSLQPEDVATYYCQHFWSSIYTFGQGTKLEIKRTVAAPSVFIFPPSDEQLKSGTASVVCLLNNFYPREAKVQWKVDNALQSGNSQESVTEQDSKDSTYSLSSTLTLSKADYEKHKVYACEVTHQGLSSPVTKSFNRGEC
notes: Product of the 2/3-IgG exchange reaction, assayed as reaction mix; also called fluos bio
VEGF [1]
  relative signal intensity: 10.2%
VEGF [2]
  binding result: no binding (tested: input molecule concentration 1.3 µM)

B8: anti-PDGF/anti-bio bsAb (PDGF 2/3-IgG with E357K MHCFcRP x bio 2/3-IgG with K370E MHCFcRP) (bispecific antibody)
heavy 1: EVQLVESGGGLVQPGGSLRLSCAASGFTFSSYWMSWVRQAPEKGLEWVSTISDGGGLTYYADSVKGRFTISRDNAKNSLYLQMNSLRAEDTAVYYCAESGGYTDWLFGYWGQGTLVTVSSASTKGPSVFPLAPSSKSTSGGTAALGCLVKDYFPEPVTVSWNSGALTSGVHTFPAVLQSSGLYSLSSVVTVPSSSLGTQTYICNVNHKPSNTKVDKKVEPKSC
light 1: not shown
heavy 2: not shown
light 2: DIQMTQSPSSLSASVGDRVTITCRASGNIHNYLSWYQQKPGKVPKLLIYSAKTLADGVPSRFSGSGSGTDFTLTISSLQPEDVATYYCQHFWSSIYTFGQGTKLEIKRTVAAPSVFIFPPSDEQLKSGTASVVCLLNNFYPREAKVQWKVDNALQSGNSQESVTEQDSKDSTYSLSSTLTLSKADYEKHKVYACEVTHQGLSSPVTKSFNRGEC
notes: Product of the 2/3-IgG exchange reaction, assayed as reaction mix; also called PDGF bio; not shown: residue limits no
VEGF [1]
  relative signal intensity: 10.5%
VEGF [2]
  binding result: no binding (tested: input molecule concentration 1.3 µM)
